Reference: patent publication US20240016923A1

Columns and labels:
Experiment in all cases: dose-dependent ELISA, antigen captured by GNA lectin
[1] = biological target: secreted E2 ectodomain (sE2), HCV E2 residues 384-661 (Hepatitis C virus, isolate H77C) (UniProt P27958)
[2] = biological target: secreted E1E2 with c-Fos/c-Jun leucine zipper scaffold (sE1E2.LZ) (Hepatitis C virus H77; human)
[3] = biological target: membrane-bound E1E2 (mbE1E2) (Hepatitis C virus, isolate H77C (genotype 1a)) (UniProt P27958)

Row | Substance | Kd [1] [nM] | Kd [2] [nM] | Kd [3] [nM] | fold lower affinity relative to mbE1E2 [2] [fold]
1 | HC84.24 (antibody) | 0.7 |  |  | 
2 | HC-11 (antibody) | 11 | 3.2 | 1.8 | 
3 | HC-1 AM (affinity-matured HC-1 antibody) | 3.6 | 2.9 | 1.5 | 
4 | CBH-4G (antibody) | 0.5 | 18 | 7.8 | 
5 | AR5A (antibody) |  | 1.7 | 1.5 | 
6 | CBH-4D (antibody) | 1 | 26 | 28 | 
7 | CBH-7 (antibody) | 0.3 | 1.7 | 1 | 
8 | HCV1 (antibody) | 6.2 | 3.5 | 9.8 | 
9 | HC33.1 (antibody) | 1.9 | 0.9 | 3.8 | 
10 | AR4A (antibody) |  | 16 | 2.3 | 8
